Measurements published in patent publication US20250043302A1, “MUTATED HYDROXYPHENYLPYRUVATE DIOXYGENASE POLYPEPTIDE, AND CODING GENE AND USE THEREOF” (BEIJING DABEINONG BIOTECHNOLOGY CO., LTD., priority 2021, published 2025).

Key:
Format in all cases: in vivo
[1] = system: Arabidopsis thaliana T1 plants; assay: Topramezone tolerance of transgenic Arabidopsis thaliana T1 plants (spray, bleached leaf area grade, damage score); conditions: 7 DAT, Table 4; for Classification and statistics of the grade of pesticide damage: Grade 0 / Classification and statistics of the grade of pesticide damage: Grade 1 / Classification and statistics of the grade of pesticide damage: Grade 2 / Classification and statistics of the grade of pesticide damage: Grade 3: number of plants; for Scores: pesticide damage score 0-100
Summary of the method: (§1)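 Damage was assessed by bleaching grade (0 none; 1 <50%; 2 >50%; 3 100% of leaf area) one week after spraying. Sprays on 18-day-old T1 and wild-type plants used field-rate multiples: topramezone 25–200, isoxaflutole 35–280, mesotrione 52.5–420 g ai/ha.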

[2] = system: Arabidopsis thaliana T1 plants; assay: Isoxaflutole tolerance of transgenic Arabidopsis thaliana T1 plants (spray, bleached leaf area grade, damage score); design: Scores (pesticide damage): scale not given here; conditions: spray, Arabidopsis thaliana T1 plants; for Classification and statistics of the grade of pesticide damage: Grade 0 (number of plants) / Classification and statistics of the grade of pesticide damage: Grade 1 (number of plants) / Classification and statistics of the grade of pesticide damage: Grade 2 (number of plants) / Classification and statistics of the grade of pesticide damage: Grade 3 (number of plants): 16 plants
Summary of the method: as §1

[3] = system: Arabidopsis thaliana T1 plants; assay: Mesotrione tolerance of transgenic Arabidopsis thaliana T1 plants (spray, bleached leaf area grade, damage score); design: Scores: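 damage score 0-100 computed as Σ(N×S)/(T×M)×100 over grades 0-3 with higher meaning more damage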; conditions: Arabidopsis thaliana T1 plants; for Grade 0 (classification and statistics of the grade of pesticide damage; number of plants) / Grade 1 (classification and statistics of the grade of pesticide damage; number of plants) / Grade 2 (classification and statistics of the grade of pesticide damage; number of plants) / Grade 3 (classification and statistics of the grade of pesticide damage; number of plants): 16 plants
Summary of the method: as §1

[4] = isoxaflutole 35 g ai/ha (0.5x field concentration)
[5] = isoxaflutole 70 g ai/ha (1x field concentration)

Molecule	Classification and statistics of the grade of pesticide damage: Grade 0 ([1]; topramezone 25 g ai/ha (1×))	Classification and statistics of the grade of pesticide damage: Grade 1 ([1]; topramezone 25 g ai/ha (1×))	Classification and statistics of the grade of pesticide damage: Grade 2 ([1]; topramezone 25 g ai/ha (1×))	Classification and statistics of the grade of pesticide damage: Grade 3 ([1]; topramezone 25 g ai/ha (1×))	Classification and statistics of the grade of pesticide damage: Grade 0 ([1]; topramezone 100 g ai/ha (4×))	Classification and statistics of the grade of pesticide damage: Grade 1 ([1]; topramezone 100 g ai/ha (4×))	Classification and statistics of the grade of pesticide damage: Grade 2 ([1]; topramezone 100 g ai/ha (4×))	Classification and statistics of the grade of pesticide damage: Grade 3 ([1]; topramezone 100 g ai/ha (4×))	Scores ([1]; topramezone 25 g ai/ha (1×))	Scores ([1]; topramezone 100 g ai/ha (4×))	Resistance evaluation ([1]; topramezone 25 g ai/ha (1×))	Resistance evaluation ([1]; topramezone 100 g ai/ha (4×))	Resistance evaluation [2, 4]	Scores (pesticide damage) [2, 4]	Classification and statistics of the grade of pesticide damage: Grade 0 (number of plants) [2, 4]	Classification and statistics of the grade of pesticide damage: Grade 1 (number of plants) [2, 4]	Classification and statistics of the grade of pesticide damage: Grade 2 (number of plants) [2, 4]	Classification and statistics of the grade of pesticide damage: Grade 3 (number of plants) [2, 4]	Resistance evaluation [2, 5]	Scores (pesticide damage) [2, 5]	further results
HvHPPD-02: nucleotide sequence encoding wild-type Hordeum vulgare HPPD; vector DBN11762 (nucleic acid, HvHPPD-02 Nucleotide Sequence, vector DBN11762) DNA: ATGCCGCCGACGCCCACCACCCCAGCAGCTACCGGAGCTGCGGCTGCAGTAACCCCTGAGCATGCTCGGCCCCACAGGATGGTGAGGTTTAATCCAAGATCAGATCGTTTTCATACACTCTCGTTCCACCATGTTGAGTTCTGGTGCGCCGACGCGGCTTCAGCGGCCGGGAGGTTCGCCTTCGCGCTGGGGGCCCCTCTTGCCGCGCGTAGTGATTTGTCTACTGGGAATTCAGCGCACGCGTCCCAGCTTCTCCGAAGCGGCAGTCTCGCCTTTCTCTTCACTGCACCATATGCAAATGGATGTGATGCAGCAACTGCTTCCCTGCCGAGCTTTTCTGCGGATGCCGCGAGGCGATTCAGTGCTGACCATGGGATCGCCGTCCGGTCAGTTGCTCTTAGAGTGGCTGATGCTGCTGAGGCATTCAGGGCTTCAAGGCGTCGTGGTGCACGCCCGGCGTTTGCCCCGGTTGATCTTGGGCGGGGGTTTGCTTTTGCAGAGGTGGAGCTGTACGGCGACGTGGTGCTCCGATTTGTTTCTCACCCGGACGGCACTGATGTGCCCTTCTTGCCAGGATTTGAAGGTGTGACCAACCCTGATGCCGTGGATTATGGACTCACAAGATTTGATCATGTGGTTGGCAATGTTCCTGAATTGGCACCTGCTGCCGCTTACATCGCAGGTTTTACTGGCTTCCATGAATTTGCTGAATTCACGGCGGAGGATGTTGGTACAACTGAGTCAGGGCTGAACAGTGTTGTTTTAGCCAACAACTCAGAAGGAGTTCTCCTTCCCTTGAATGAACCTGTTCATGGAACCAAGCGCCGCTCCCAAATTCAAACATTTCTTGAGCACCACGGCGGCCCTGGTGTTCAACATATTGCTGTCGCCTCTAGCGACGTCCTGCGTACATTACGCAAGATGAGGGCTCGGTCCGCAATGGGTGGTTTCGACTTCCTCCCTCCACCATTGCCAAAATATTATGAAGGCGTCAGAAGACTTGCAGGAGATGTCCTCTCTGAAGCTCAGATCAAGGAGTGCCAAGAACTTGGCGTCTTGGTTGATAGAGATGACCAAGGAGTACTTCTGCAGATATTTACAAAACCCGTTGGTGACAGGCCAACTCTTTTCCTGGAGATGATTCAGAGAATTGGCTGCATGGAGAAAGATGAAAGAGGCGAGGAGTACCAGAAGGGTGGTTGTGGAGGCTTTGGAAAAGGAAACTTCTCAGAGCTGTTCAAGTCCATAGAAGATTACGAGAAAAGTCTAGAAGCCAAGCAGTCTGCTGCAGTGCAAGGTTCCTGA	0	0	0	16	0	0	0	16	100	100	non-resistant (non-resistant plants (scores 68-100))	non-resistant (non-resistant plants (scores 68-100))	Non-resistant	100	0	0	0	16	Non-resistant	100	Classification and statistics of the grade of pesticide damage: Grade 0 (number of plants) [2, 5]: 0; Classification and statistics of the grade of pesticide damage: Grade 1 (number of plants) [2, 5]: 0; Classification and statistics of the grade of pesticide damage: Grade 2 (number of plants) [2, 5]: 0; Classification and statistics of the grade of pesticide damage: Grade 3 (number of plants) [2, 5]: 16; Resistance evaluation ([3]; mesotrione 52.5 g ai/ha): Non-resistant; Scores ([3]; mesotrione 52.5 g ai/ha): 100; Grade 0 (classification and statistics of the grade of pesticide damage; number of plants) ([3]; mesotrione 52.5 g ai/ha): 0; Grade 1 (classification and statistics of the grade of pesticide damage; number of plants) ([3]; mesotrione 52.5 g ai/ha): 0; Grade 2 (classification and statistics of the grade of pesticide damage; number of plants) ([3]; mesotrione 52.5 g ai/ha): 0; Grade 3 (classification and statistics of the grade of pesticide damage; number of plants) ([3]; mesotrione 52.5 g ai/ha): 16; Resistance evaluation ([3]; mesotrione 105 g ai/ha): Non-resistant; Scores ([3]; mesotrione 105 g ai/ha): 100; Grade 0 (classification and statistics of the grade of pesticide damage; number of plants) ([3]; mesotrione 105 g ai/ha): 0; Grade 1 (classification and statistics of the grade of pesticide damage; number of plants) ([3]; mesotrione 105 g ai/ha): 0; Grade 2 (classification and statistics of the grade of pesticide damage; number of plants) ([3]; mesotrione 105 g ai/ha): 0; Grade 3 (classification and statistics of the grade of pesticide damage; number of plants) ([3]; mesotrione 105 g ai/ha): 16
SbHPPD-02: nucleotide sequence encoding wild-type Sorghum bicolor HPPD; vector DBN11758 (nucleic acid, SbHPPD-02 Nucleotide Sequence, vector DBN11758) DNA: ATGCCGCCCACTCCAACAACTGCTGCTGCGACGGGAGCAGCTGTCGCCGCTGCTTCTGCTGAGCAGGCTGCCTTCAGGCTCGTCGGGCACAGAAATTTTGTTCGTGTAAATCCAAGGAGTGATAGGTTCCACACCTTGGCTTTTCACCACGTGGAGTTGTGGTGTGCTGATGCAGCCTCGGCAGCGGGGCGCTTCTCGTTTGGTCTCGGTGCTCCGCTCGCCGCAAGATCTGATCTTAGCACTGGAAACACAGCGCATGCCTCCCTGCTCCTGCGCTCTGGCGCGCTGGCGTTCCTCTTCACGGCGCCATATGCTCACGGCGCCGACGCCGCCACCGCGTCATTGCCGTCTTTTAGTGCAGCCGAAGCAAGAAGATTTGCAGCAGACCACGGCCTCGCCGTAAGGGCCGTGGCCTTACGTGTCGCCGATGCCGAAGATGCTTTCCGCGCCTCTGTAGCAGCTGGAGCAAGGCCAGCATTTGAACCTGTTGAATTGGGGTTAGGATTCCGTCTTGCAGAAGTTGAGCTTTATGGCGACGTTGTTTTGAGATACGTTTCATATCCTGATGACGCTGACGCTAGCTTCTTGCCTGGTTTTGTGGGGGTGACATCACCTGGGGCAGCAGATTATGGTCTCAGGCGGTTTGATCATATTGTTGGAAACGTTCCTGAACTCGCGCCGGCGGCAGCCTACTTCGCCGGTTTCACTGGGTTTCATGAATTTGCTGAATTCACAGCCGAGGATGTCGGCACCACCGAGAGTGGACTGAACTCCATGGTGCTGGCCAACAATGCAGAGAATGTCCTTCTTCCCTTGAATGAACCAGTTCATGGAACAAAAAGGCGTTCCCAAATACAAACATACCTCGACCATCATGGTGGACCAGGCGTTCAGCATATGGCTCTCGCTAGTGACGATGTTCTACGAACCCTGCGAGAGATGCAGGCGCGGTCTGCAATGGGAGGATTTGAGTTCATGGCACCTCCTGCCCCTGAATATTATGATGGTGTTCGGAGAAGGGCAGGTGATGTGCTAACTGAAGCTCAAATCAAGGAGTGCCAGGAGCTTGGCGTGCTGGTCGATCGGGATGATCAAGGTGTGCTTCTGCAGATTTTTACTAAACCAGTGGGTGACCGCCCCACGCTGTTCCTAGAGATCATCCAGAGAATAGGGTGCATGGAGAAGGACGAAAAAGGACAAGAGTACCAGAAGGGAGGTTGTGGCGGCTTTGGAAAAGGGAACTTCTCCCAATTATTCAAGTCAATTGAAGACTATGAAAAGAGTTTGGAGGCTAAGCAAGCTGCAGCCGCCCAGGGCAGCTGA	0	0	0	16	0	0	0	16	100	100	non-resistant (non-resistant plants (scores 68-100))	non-resistant (non-resistant plants (scores 68-100))	Non-resistant	100	0	0	0	16	Non-resistant	100	Classification and statistics of the grade of pesticide damage: Grade 0 (number of plants) [2, 5]: 0; Classification and statistics of the grade of pesticide damage: Grade 1 (number of plants) [2, 5]: 0; Classification and statistics of the grade of pesticide damage: Grade 2 (number of plants) [2, 5]: 0; Classification and statistics of the grade of pesticide damage: Grade 3 (number of plants) [2, 5]: 16; Resistance evaluation ([3]; mesotrione 52.5 g ai/ha): Non-resistant; Scores ([3]; mesotrione 52.5 g ai/ha): 100; Grade 0 (classification and statistics of the grade of pesticide damage; number of plants) ([3]; mesotrione 52.5 g ai/ha): 0; Grade 1 (classification and statistics of the grade of pesticide damage; number of plants) ([3]; mesotrione 52.5 g ai/ha): 0; Grade 2 (classification and statistics of the grade of pesticide damage; number of plants) ([3]; mesotrione 52.5 g ai/ha): 0; Grade 3 (classification and statistics of the grade of pesticide damage; number of plants) ([3]; mesotrione 52.5 g ai/ha): 16; Resistance evaluation ([3]; mesotrione 105 g ai/ha): Non-resistant; Scores ([3]; mesotrione 105 g ai/ha): 100; Grade 0 (classification and statistics of the grade of pesticide damage; number of plants) ([3]; mesotrione 105 g ai/ha): 0; Grade 1 (classification and statistics of the grade of pesticide damage; number of plants) ([3]; mesotrione 105 g ai/ha): 0; Grade 2 (classification and statistics of the grade of pesticide damage; number of plants) ([3]; mesotrione 105 g ai/ha): 0; Grade 3 (classification and statistics of the grade of pesticide damage; number of plants) ([3]; mesotrione 105 g ai/ha): 16
